Literature values, collected in patent US6610516B1, “Cell culture process” (Genentech, Inc., priority 1999, dated 2003).

B1: N117Q: t-PA variant wherein asparagine at position 117 of wild-type human t-PA was substituted with glutamine (protein, UniProt P00750 36-562, looked up, variant N117Q)
Tissue-type plasminogen …: SYQVICRDEKTQMIYQQHQSWLRPVLRSNRVEYCWCNSGRAQCHSVPVKSCSEPRCFNGGTCQQALYFSDFVCQCPEGFAGKCCEIDTRATCYEDQGISYRGTWSTAESGAECTNWQSSALAQKPYSGRRPDAIRLGLGNHNYCRNPDRDSKPWCYVFKAGKYSSEFCSTPACSEGNSDCYFGNGSAYRGTHSLTESGASCLPWNSMILIGKVYTAQNPSAQALGLGKHNYCRNPDGDAKPWCHVLKNRRLTWEYCDVPSCSTCGLRQYSQPQFRIKGGLFADIASHPWQAAIFAKHRRSPGERFLCGGILISSCWILSAAHCFQERFPPHHLTVILGRTYRVVPGEEEQKFEVEKYIVHKEFDDDTYDNDIALLQLKSDSSRCAQESSVVRTVCLPPADLQLPDWTECELSGYGKHEALSPFYSERLKEAHVRLYPSSRCTSQHLLNRTVTDNMLCAGDTRSGGPQANLHDACQGDSGGPLVCLNDGRMTLVGIISWGLGCGQKDVPGVYTKVTNYLDWIRDNMRP
B2: TNK t-PA: t-PA variant: glycosylation site added at position 103, removed at 117, positions 296-299 replaced by AAAA (protein, UniProt P00750 36-562, looked up, variant T103N N117Q K296A H297A R298A R299A)
Tissue-type plasminogen …: SYQVICRDEKTQMIYQQHQSWLRPVLRSNRVEYCWCNSGRAQCHSVPVKSCSEPRCFNGGTCQQALYFSDFVCQCPEGFAGKCCEIDTRATCYEDQGISYRGNWSTAESGAECTNWQSSALAQKPYSGRRPDAIRLGLGNHNYCRNPDRDSKPWCYVFKAGKYSSEFCSTPACSEGNSDCYFGNGSAYRGTHSLTESGASCLPWNSMILIGKVYTAQNPSAQALGLGKHNYCRNPDGDAKPWCHVLKNRRLTWEYCDVPSCSTCGLRQYSQPQFRIKGGLFADIASHPWQAAIFAAAAASPGERFLCGGILISSCWILSAAHCFQERFPPHHLTVILGRTYRVVPGEEEQKFEVEKYIVHKEFDDDTYDNDIALLQLKSDSSRCAQESSVVRTVCLPPADLQLPDWTECELSGYGKHEALSPFYSERLKEAHVRLYPSSRCTSQHLLNRTVTDNMLCAGDTRSGGPQANLHDACQGDSGGPLVCLNDGRMTLVGIISWGLGCGQKDVPGVYTKVTNYLDWIRDNMRP

Key:
[1] = test system: fibrin; settings: Keyt et al. 1994

| Molecule | Clearance rate versus wild-type human t-PA (Hotchkiss et al., Lau et al.) | Fibrin specificity versus wild-type human t-PA [1] | Circulatory half-life versus wild-type human t-PA (Keyt et al. 1994) |
| --- | --- | --- | --- |
| B1 | about two-fold slower clearance rate | – | – |
| B2 | – | markedly better fibrin specificity | increased circulatory half-life |
